# Test results from patent US20160015827A1.
# Several values for one entry are separate records, joined by “and”; a condition that tells them apart may be missing. Equal entries are not always repeated.
# Assays:
# [1] = molecular target: human folate receptor alpha (FRA) (human) (UniProt P15328); assay: flow cytometry on NCI-H2110 cells, 10 µg/mL
# [2] = molecular target: human folate receptor alpha (FRA) (human) (UniProt P15328); assay: flow cytometry on OVCAR-3 cells, 10 µg/mL
# [3] = molecular target: human folate receptor alpha (FRA) (human) (UniProt P15328); assay: flow cytometry on SK-OV-3 cells, 10 µg/mL
# [4] = molecular target: human folate receptor alpha (FRA) (human) (UniProt P15328); assay: flow cytometry on NCI-H292 cells, 10 µg/mL
# [5] = molecular target: human folate receptor alpha (FRA) (human) (UniProt P15328); assay: flow cytometry on SK-OV-3 cells, secondary antibody alone (background)
# [6] = molecular target: human folate receptor alpha (FRA) (human) (UniProt P15328); assay: flow cytometry on NCI-H2110 cells, secondary antibody alone (background)
# [7] = molecular target: human folate receptor alpha (FRA) (human) (UniProt P15328); assay: flow cytometry on OVCAR-3B cells, secondary antibody alone (background)
# [8] = molecular target: human folate receptor alpha (FRA) (human) (UniProt P15328); assay: flow cytometry on NCI-H292 cells, secondary antibody alone (background)
# Chain of human folate receptor alpha (FRA) (human) (P15328 25-234 limits assumed): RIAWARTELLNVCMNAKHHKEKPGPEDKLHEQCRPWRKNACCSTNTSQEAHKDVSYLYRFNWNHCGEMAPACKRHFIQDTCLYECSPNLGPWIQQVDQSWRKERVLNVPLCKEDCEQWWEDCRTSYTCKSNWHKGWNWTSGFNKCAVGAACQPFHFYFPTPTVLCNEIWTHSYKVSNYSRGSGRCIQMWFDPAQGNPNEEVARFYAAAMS
MFI [1] [MFI],MFI [2] [MFI],MFI [3] [MFI],MFI [4] [MFI],MFI [5],MFI [6] [MFI],MFI [7] [MFI],MFI [8] [MFI],Substance
5,7,6,6,,,,,isotype control antibody human IgG
,,,,6 MFI and 5 MFI,5,5,6,goat F(ab')2-anti-human IgG (H+L)-RPE or goat anti-human IgG-RPE (antibody)
